Publication PMC4840315

How the values were obtained:
[1] = molecular target: insulin; experiment: ligand dot blot (densitometric analysis of dots); conditions: 2.5 μl (0.09 mg/ml) protein dotted on nitrocellulose; 1 μg/ml insulin, 4 °C overnight; parent: est. 0.12; read off a plot
[2] = molecular target: insulin; experiment: pull-down (Ni-Sepharose 6 column, Western blot with anti-insulin antibody, densitometric analysis of bands); conditions: 0.1 mg His6-tagged-IGFBP7 mixed with 0.5 mg insulin; parent: est. 0.20; read off a plot

wild-type IGFBP7 (insulin-like growth factor binding protein 7), His6-tagged (from UniProt Q16270) H200F
response [1]: 0.11 Gradation

wild-type IGFBP7 (insulin-like growth factor binding protein 7), His6-tagged (from UniProt Q16270) R198E
response [1]: 0.53 Gradation

wild-type IGFBP7 (insulin-like growth factor binding protein 7), His6-tagged (from UniProt Q16270) R198I; H200F
response [2]: 0.1 Gradation
response [1]: 0.025 Gradation
